From US20110171222A1 (Hoffmann-La Roche, published 2011) come the findings set out here.

The target in one assay is T1, human HER3 ECD (human, UniProt P21860 20-643).
T1 construct: also called hHER3-ECD; hu-HER3-ECD
As to the kind of experiment: SPR (Biacore T100), antibody captured by anti-Fc gamma, HER3 ECD as analyte, 25 °C, 1:1 Langmuir model.

Assay [1] deals with T2, Soluble human HER3 extracellular domain fused to Streptavidin Binding Protein (SBP) (human, UniProt P21860 20-643).
T2 construct: It was used as HEK293 supernatant captured on streptavidin plates; also called SBP-HER3
As to the kind of experiment: ratio of the concentration by HER3-ECD ELISA to the concentration by IgG ELISA. (ELISA stands for enzyme-linked immunosorbent assay.)

For assay [2], the target named is T2, Soluble human HER3 extracellular domain …. As to the kind of experiment: ELISA, SBP-HER3 ECD captured on streptavidin plate, anti-human IgG-HRP detection.
Protocol: Soluble human HER3 extracellular domain fused to Streptavidin Binding Protein (SBP) was captured on a streptavidin plate. […] For the standard coating, SBP-HER3 containing HEK293 supernatant was diluted (between 1:15 and 1:40) and incubated overnight at 2-80 C (25 μl per well). Intensive washing of the microtiter plate was necessary to remove remaining unbound SBP-HER3.
Antibodies were tested either undiluted or using a 12-step-dilution. 12.5 μl per well of each sample was incubated for 90 min at room temperature.
In assay [3] the target is HER3 on MCF7, FaDu and Mel-Juso tumor cells (human) (UniProt P21860). As to the kind of experiment: cell-based or functional assay.

Usually Kd stands for a measure of binding affinity in units of concentration. Low readings indicate a tighter complex, high ones a looser complex.

Protocol for human HER3 ECD: After conjugation, anti-HER3 antibodies were injected at 25° C. at a flow rate of 5 μL/min, followed by a dilution series (0 nM to 1000 nM) of human HER3 ECD at 30 μL/min. As running buffer for the binding experiment PBS/0.1% BSA was used. The chip was then regenerated with a 60 s pulse of 10 mM glycine-HCl, pH 2.0 solution.
Calculation of thermodynamic parameters (KD, binding constant to HER3) were calculated using a Langmuir 1:1 binding model.

B1: Mab 205.10.1 (antibody, V domains shown)
VH: QVQLVQSGAEVKKPGASVKVSCKASGYTFRSSYISWVRQAPGQGLEWMGWIYAGTGSPSYNQKLQGRVTMTTDTSTSTAYMELRSLRSDDTAVYYCARHRDYYSNSLTYWGQGTLVTVSS
VL: DIVMTQSPDSLAVSLGERATINCKSSQSLLNSGNQKNYLTWYQQKPGQPPKLLIYWASTRESGVPDRFSGSGSGTDFTLTISSLQAEDVAVYYCQSDYSYPYTFGQGTKLEIK
notes: Humanized antibody; Only the variable domains are tied to it; The assays detected it with anti-human IgG or captured it with anti-Fc gamma
B1 yielded a Kd in the assay with human HER3 ECD of 2 nM. In addition, the “activity (ratio binding to hu_HER3-ECD/IgG)” value in assay [1] was found to be 0.74. In assay [2], this molecule registered a hu_HER3-ECD-ELISA c of 583 µg/mL.

B2: Mab 205.10.3 (antibody, human IgG1, V domains shown)
VH: QVQLVQSGAEVKKPGASVKVSCKASGYTFRSSYISWVRQAPGQGLEWMGWIYAGTGSPSYNQKLQGRVTMTTDTSTSTAYMELRSLRSDDTAVYYCARHRDYYSNSLTYWGQGTLVTVSS
VL: DIVMTQSPDSLAVSLGERATINCKSSQSLLNSGNQKNYLTWYQQKPGQPPKLLIYWASTRESGVPDRFSGSGSGTDFTLTISSLQAEDVSIYYCQSDYSYPYTFGQGTKLEIK
notes: Humanized antibody; Only the variable domains are tied to it
On to B2, for which binding in the assay with human HER3 ECD was characterised by a dissociation constant (Kd) of 2 nM. Also, in assay [1], the “activity (ratio binding to hu_HER3-ECD/IgG)” value was 0.83. Besides, the hu_HER3-ECD-ELISA c in assay [2] stood at 505 µg/mL.

B3: U1-53 (antibody, from another filing, V domains shown)
VH: EVQLVESGGGLVQPGGSLRLSCAASGFTFSIYSMNWVRQAPGKGLEWVSYISSSSSTIYYADSVKGRFTISRDNAKNSLYLQMNSLRDEDTAVYYCARDRGDFDAFDIWGQGTMVTVSS
VL: DIQMTQSPSSLSASVGDRVTITCQASQDITNYLNWYQQKPGKAPKLLIYDASNLETGVPSRFSGSGSGTDFTFTISSLQPEDIATYNCQQCENFPITFGQGTRLEIK
In assay [3], B3 yielded a pHER3 % inhibition [0.1 µg/ml], MCF7 cells of 54% and a pHER3 % inhibition [1.0 µg/ml], MCF7 cells of 51%.
